Test: label from the status in PepcDB records

For “MSQELKNKVQFLAKELNQLVNILYEESKKQTPLTLWLLCKNTFVYLYRTVKTVRGVAGVLLVLVPGSLMAYTTDAFRAIGELPWTSITVLLGGMSFFLFAYLRHLVLDEMSRPGSDLFHIQVYEKRKPDEYMSLIALAKERDYVESIAADIEQVTSTPSLPNLLELLKEKEQDIEEKDRVIEDLLEIVEDNEEHTLMFKEKYEILLDFVFQLKSKLNLLVHDQFSLDSIDFGSDYSLYKVGEEGLEFVDSYGVNKAEMEDFIPFTEKGNPYILAIERDYKDPLKVGDLISWKRTLQDGSQWVLSLHLNENSREKLNDVTESGKLNVTITQELLWICCELLNKFSPNPTKKGEE”, the protein production was “failed”.

With “MPAGLVISAPASGVGKTTLTLALARAWRNRGLSVQCFKSGPDYIDPAFHAAATGRASVNVDSWAMDRGGIAHLVGRGADADVVLAEGSMGLFDGVAARGVSGTGATADIAEMLGWPVLLVIDPSGQAQTAAAIAAGLRDYRPGVRLAGVVLNRVASPRHEDLVRRALDDAGIAVFGALPRHAEISLPKRHLGLVQAEEQAEIGKLIDEAARFVAEHVDLDAVLQSAAAWAPQPAANGLNVTPPGQRIALARDAAFSFVYPHMLEAWRAAGADISTFSPLADEAPDASADVCWLPGGYPELHAGKIAANARFCSGLRAFAETRPVHGECGGYMVLGTALTDADGVRHEMAGLLGLETSFAKRRMHLGYRLAELAAPMPGHSPGARLRGHEFHYSTIAAQPDMPLAVVHDATGAVIAETGSRRGNATGTFFHLIAEDRLEHHHHHH” the protein production was “not failed”.

With “MLSLPPCRLAARRYRPLRQQNRGSSAVILYNAPSFFDCRFDCLANHRQRRWPRAGHPDRDDVMHTLEQLRAGKLCGARHLKLAENLTEFPPEIFSLKETLEVLDLTGNQLSRLPDGLAEFSKLRIIFCSENRFTELPEVLGRCPALTMVGFKANKIVTVPAASLPAGLRWLILTDNAVEQLPDELGQCGALQKLMLSGNRLRELPVTLANCQRLELVRIAANRLEALPHWLVRLPRLAWLAYAGNPFSDKQEQRLGQCASVADIPWDSLKVGELLGQGASGVIHRAELATPAGPRAVAVKCFKGAVTSDGLPRCELAVSLAAGRHPHLVGVEGRVGDHPSGIPALVMALIDPDFINLAGPPSLDSCTRDIYQADARFTPAALLAMVQGVASAALHLHGRGILHGDLYAHNMLHSLQEEGRLLLGDFGAASCYERTDGELAGLLERLEVRAFGCLLEELLARCAPCDDRLDALHALVDDCLAEVVAARPDFAEIAARLAAVAPVICAEPVLL” the protein production was “failed”.

With “MPQTSSVFRYPGGKTQLYSFVHHLLKINSITDISLEPFAGGAGIPLKLLIDNRINTVWINDYDKAIYSVWDTILNDPVALISLIESVPFDYHSGHKISPEFSISFWKKQKDIYLNNKNHQHSIELAFSTLFLNRTNTSGIITAGPLGGFKQNRKTQIYARFNKETLINKINLIHSFKSQIKLTRLNTLDMIPKIRNSVDPKNSFIFFDPPYFEQGKELYYSSFNEQGHKELANGILSLKQYHWITTYDTAPQIQEDYTMAKQKYEYSLNYSANNKNRGKTAEFMFASPVTRLSSFEKVDLTPLA” the protein production was “failed”.

In the case of “MTHRIAPRCFSTIMLLCLLYTSPLDVIAQGQGGQGDIPVVNPTAPGGSTTTPTITQPSPPSLTFPGPTTPTGGYPPLDGTTPTGGYPPLYGTTPPGGGDVGGGGGGYGGGTPGGGGGGGGDTGAGAGGGGYGGGGDTGAGGGVGSGQWCIAKANASPTSLQVALDYACGYGGADCGQIQQGAACYEPNTIRDHASFAFNSYYQKHPGSDSCNFGGAAQLTSTDPSKTS”, the protein production is reported as “failed”.

With “MSILMPVRNEERFLPAALASLCRQSLTAWELIVVDDGSTDDTPELLRVAAARDRRVRVFNNAGAGLVDALNYGLAHCRAELVARMDGDDISHPQRLERQAAALDADPGLGLVATRFRHFPRHSVGLGMRAYEEWQNGLLTHEEIMRDRFVESPVVHPSVMARRQALTDAGGYRKTGWAEDYDLWLRLAAGGVRFTRLPEVLFFWRERPERATRTMGEYAADAFRACKIHHLCQGFLLGVDNVTLAGAGLEGRAWQRALAREGVRVGRWLDVDPRKQGRILHGAPVTAPDDVRAGAEKILVTVGTRGARDGVRAWARRAGLREGEDFVCVTLEHHHHHH” the protein production was “failed”.

In the case of “MSLLNIKFTDNAVDYLKRREILDKILILITDDGGGKYSIQGGSCSMGAHFSIIWLDKVDPDYPVKIANEQNVKIYTSDFDKTMLGPNMVMDYNAGSLSLSSDEGLLDGSVDIGNGAALLKANKNVQMGINRQCEGHHHHHH”, the protein production is reported as “not failed”.

For “METLSNSILTVQIAEHGAELQSIKKDGKEYLWQGDAKFWGRRSPVLFPIVGRVWNNKYRHAGNTYEIGQHGFARDMDFKLTYKEDKGAVYWLESTPDTLGKFPFPFRLLVGYLLEENKITVKWRVENLGAMDMYFQIGAHPAFYFPEFDAATKDRGFFVFDRKSDLEYIMPTEKGCVSPERHVLKLNKEGLMPIDIHTFDCDTYIFDNKQLKKITLLDKKKKPHISLEFNSPLVALWSPTKTHPDCPFVCIEPWYGRCDSVGYSGELKDREWIQKLEPKETFDVEYKIIIE”, the protein production was “failed”.

With “MSVDPACPQSLPCFEASDCKESSPMPVICGPEENYPSLQMSSAEMPHTETVSPLPSSMDLLIQDSPDSSTSPKGKQPTSAENSVAKKEDKVPVKKQKTRTVFSSTQLCVLNDRFQRQKYLSLQQMQELSNILNLSYKQVKTWFQNQRMKSKRWQKNNWPKNSNGVTQKASAPTYPSLYSSYHQGCLVNPTGNLPMWSNQTWNNSTWSNQTQNIQSWSNHSWNTQTWCTQSWNNQAWNSPFYNCGEESLQSCMHFQPNSPASDLEAALEAAGEGLNVIQQTTRYFSTPQTMDLFLNYSMNMQPEDV” the protein production was “not failed”.

With “MSPAIITLLILVVAIIIFISDRLPMGLVAFMVPMALYFFGVIGVKDIFASIVNENVILIIAMCVLGAAFFKTGLAWQSSKILLKYAKTERSLSVLIFMISGVMSAFVSNSGTVAVLIPIVLGIAGTSQIKPIKLLMPLVFGATIGADISIIGSPGNLIAKNTIETFSKGNLSVPFFEYAKIGIPLMIACALLLFFFGSRLIPDRDGHEQSDVQMDYSHIPEWHKLLTLIVFVLAILGMVATDYVKFLPPIHIIACCAAIVLVLTGVLNQKETFNSFETLTVFMLAFMMPLGAALNSTGAGEMIARAVISVTGNSGVIVIMASLWILTWALTQVMSNTAACTLLCPVGWTIAQSIGADPRAVVIAIFIASSVAVCTPMAIPANSMIIGPGNVKFKDFLKPGLAISFVCFIVSMILLPVFYPFY” the protein production was “failed”.

For “MKRDRNLTWHRTDALRPNLEGRQVAVIGGTGGIGRALSRHLASLDARVVVVGQTFRDADVPGIRFIQADLSLMHEAQRVAGLLPAQTLDLVIFTTGIFAAPQRQETTEGIERDLAVSYLNRLVMLRAIAPTLGTQRARPAMKPRVFIMGYPGSGQTGAPDDLNAEAPYKAMAAHMNTVAGNEMLVLDAALRYPQATFFGLNPGLIKTGIRDNFFGKGSVKSRIAETLIGWLTPTADTYAQRITPLLMSPDLEGHSGAMFNSKGQAILPSPGLGEAHIRKFMAASEALANRTGIHPIGQEDRP”, the protein production was “failed”.

With “MEISNRLKSISEVMDRCEIAADIGTDHAYLPIYLIKNNLCKRFIASDVNAGPLKKAINNINKYKLEDKIECRLGSGLNVLKLEEVDVVVIAGMGGNLIRDIIEERLDIFKKLKYAVLQPVQNPEILREYLIKRGFNIIEEQLCIDESKYYEIIKVCYDSKIEDKDDVYYEIGDKLIDMKHPLLKEYINYKIRKYDKIYKNISEESLNALSRKNELSIKIRKLKELLSCL” the protein production was “failed”.

With “MPIKARETDMATRFKGLSAFPITPADEAGRVDIEAFSALIARLDAAEVDSVGILGSTGIYMYLTREERRRAIEAAATILRGRRTLMAGIGALRTDEAVALAKDAEAAGADALLLAPVSYTPLTQEEAYHHFAAVAGATALPLAIYNNPTTTRFTFSDELLVRLAYIPNIRAIKMPLPADADYAGELARLRPKLSDDFAIGYSGDWGCTDATLAGGDTWYSVVAGLLPVPALQLMRAAQAGNAEEAKRLDATFQPLWALFKEFGSIRVIYAAANILSLTVSEPPRPILPLTSAERQRVEEALEALSALETAP” the protein production was “not failed”.

With “MQTNLLSRPTSAKSTSMSDKINHPQLCQWLESVAISRDKQAFTHLFQFFAPKILRIARGKFPNEAQANEVVQDTMSNVWRKAHLYNQDKGAATTWVYTVMRNVTFDMLRKIQGNKEDNLSDDIWPIAESMSIENEIFDDHLEHANLLSVIEELPQAQQDVVKGFYFREMSQEQLAVHLHLPLGTVKSRLRLALGKLKVQLGEKHD” the protein production was “failed”.

In the case of “MTAGLSAVVVGADRLGNIPDLLKGHNISITHHISGRDPSHQKKTLQLPSGTQLVILLTDFLGHNVMKTFRHAAQRGGIRVVACRRSVCSMQQALHQCGLCARSLEHHHHHH”, the protein production is reported as “not failed”.

Source: a protein production outcome set (Wang et al. 2014)
